Data reported in patent US20060134103A1, “Compounds and molecular complexes comprising multiple binding regions directed to transcytotic ligands” (published 2006).

T1: GST-Human-stalk fusion protein (Schistosoma japonica; human, UniProt P01833)
T1 chain: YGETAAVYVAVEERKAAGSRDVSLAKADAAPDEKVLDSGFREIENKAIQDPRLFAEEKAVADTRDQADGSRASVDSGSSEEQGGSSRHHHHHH


How the values were obtained:
[1] = molecular target: pIgR expressed in transfected MDCK cells (Examples 6 and 7)
[2] = molecular target: GST-Rat-stalk fusion protein (Schistosoma japonica; rat) (UniProt P15083); assay: SPR (BIAcore), D6-GST captured by immobilized anti-GST antibody, 1:1 Langmuir global fit
[3] = molecular target: T1, GST-Human-stalk fusion protein; assay: as above

| Binder | apical to basolateral (reverse) transcytosis after 16 hours [1] [%] | basolateral to apical (forward) transcytosis after 16 hours [1] [%] | Ka [2] [M⁻¹] | Kd [2] [nM] | Ka [3] [M⁻¹] | Kd [3] [nM] | koff [3] [s⁻¹] |
| --- | --- | --- | --- | --- | --- | --- | --- |
| sFv5AF-Cys purified dimer (scFv) scFv: DYKAKQVQLVQSGGGVVQPGRSLRLSCAASGFTFSSYAMHWVRQAPGKGLEWVSAISGSGGSTYYADSVKGRFTISRDNAKNSLYLQMNSLRAEDTAVYYCARDTRGYFDLWGRGTLVTVSSGGGGSGGGGSGGGGSSELTQDPAMSVALGQTVRITCQGDSLRKYHASWYQQRPRQAPRLVVYGKNERPSGIPERFSGSTSGDTASLTISGLQAEDEADYYCHSRDSNADLVVFGGGTKVTVLGAAAEQKLISEEDLNGAAHHHHHH | 10 | < 10 | 5.01e+08 | 2 | 5.02e+08 | 1.99 |  |
| sFv5AF-Cys purified monomer (scFv) scFv: DYKAKQVQLVQSGGGVVQPGRSLRLSCAASGFTFSSYAMHWVRQAPGKGLEWVSAISGSGGSTYYADSVKGRFTISRDNAKNSLYLQMNSLRAEDTAVYYCARDTRGYFDLWGRGTLVTVSSGGGGSGGGGSGGGGSSELTQDPAMSVALGQTVRITCQGDSLRKYHASWYQQRPRQAPRLVVYGKNERPSGIPERFSGSTSGDTASLTISGLQAEDEADYYCHSRDSNADLVVFGGGTKVTVLGAAAEQKLISEEDLNGAAHHHHHH | < 5 |  | 1.77e+08 | 5.63 | 1.77e+08 | 5.64 | 0.00241 |
| sFv5AF-Cys (starting material, mixture of monomer and dimer) (scFv) scFv: DYKAKQVQLVQSGGGVVQPGRSLRLSCAASGFTFSSYAMHWVRQAPGKGLEWVSAISGSGGSTYYADSVKGRFTISRDNAKNSLYLQMNSLRAEDTAVYYCARDTRGYFDLWGRGTLVTVSSGGGGSGGGGSGGGGSSELTQDPAMSVALGQTVRITCQGDSLRKYHASWYQQRPRQAPRLVVYGKNERPSGIPERFSGSTSGDTASLTISGLQAEDEADYYCHSRDSNADLVVFGGGTKVTVLGAAAEQKLISEEDLNGAAHHHHHH |  |  | 4.36e+08 | 2.3 | 6.71e+08 | 1.49 | 0.00145 |
